Test results: article PMC8368218 (Cell Discovery, 2021)
Where “and” joins values, the source holds several entries; their conditions need not be identical. Equal values may be shown once.

B1: SARS-CoV-2 N^11–24 (domain or fragment)
chain: NAPRITFGGPSDST
notes: also called fragment from the N-IDR of N protein

What was measured:
[1] = target: G3BP1^NTF2 (UniProt Q13283); assay: ITC
[2] = target: T1, G3BP1^NTF2 (UniProt Q13283 11-133); assay: ITC; details: both partners purified
T1 construct: also called NTF2 domain of G3BP1
T1 sequence (Q13283 11-133): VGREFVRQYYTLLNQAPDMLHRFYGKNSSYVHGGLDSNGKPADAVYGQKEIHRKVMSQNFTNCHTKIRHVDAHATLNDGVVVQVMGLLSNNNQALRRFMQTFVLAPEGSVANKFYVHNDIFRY

Chain of G3BP1^NTF2 (UniProt Q13283) (Q13283 11-133): as above

| Molecule | fold reduction of affinity against N^11–24 wild type [1] | Kd [2] [µM] |
| --- | --- | --- |
| SARS-CoV-2 N^11–24 I/A (from UniProt P0DTC9 11-24) (domain or fragment) | 6 fold and 7 fold |  |
| SARS-CoV-2 N^11–24 F/A (from UniProt P0DTC9 11-24) (domain or fragment) | 7 fold and 6 fold |  |
| B1 |  | ~10 |
